Our source for the Trimeric HA Binding RLU and FACS M2-HK MFI values is patent US20150104459A1.

Where a chain is given by its changes, count along the chain named.

B1: TCN-549 (5092_P04) (antibody, V domains shown)
VH: QVQLVQSGAEVKKPGASVKVSCKASGYTFTGYYMHWVRQAPGQGLEWMGWINPNSGDTNYAQKFQGRVTMTRDTSITTAYMELSSLRSDDTAVYYCARDSPYSSSWSFFDYWGQGPLVTVSS
VL: not shown
B2: TCN-544 (5082_A19) (antibody, V domains shown)
VH: QVQLQESGPGLVKPSETLSLTCTVSRGSIGHYFWSWIRQPPGKGLEWIGYISYSGSTKYNPSLRSRVTISVDTSKNQFSLNLNSVTATDTALYYCAREDYDILTGAGPGMEVWGQGTTVTVSS
VL: QSMLTQPPSASGTPGQRVTISCSGSSSNIGSNTVNWFKHLPGTAPKLLIYRNDLRPSGVPDRFSGSKSGTSASLAISGLQSEDEADYYCATWDDSLNGFYVFGTGTKVTVL
B3: 3252_C13 (antibody, V domains shown)
VH: QVQLQESGPGLVKPSETLSLTCTVSGASISSDYWSWIRLPPGKGLEWIGYIYNRGSTKYTPSLKSRVTISLDTAENQFSLRLRSVTAADTAIYYCARHVGGHTYGIDYWGQGTLVTVSS
VL: DIQMTQSPSSLSASVGDRVTITCRASQSISNYLNWYQHKPGEAPKLLNYAASSLQSGVPSRFSASGSGTDFTLTISSLQPEDFATYYCQQSYNTPITFGQGTRLEIK
B4: 3255_J06 (antibody, V domains shown)
VH: B3 VH with I92V
VL: B3 VL with T74S, S77G, Q100P
B5: 3362_B11 (antibody, V domains shown)
VH: QVQLQASGPGLVKPSETLSLTCTVSGDSITSGAYYWTWIRQHPGKGLEWIGYIYYSGNTYYNPSLKSRVTISLDTSKNQFSLKVNSVTAADTAVYYCARAASTSVLGYGMDVWGQGTTVTVSS
VL: B3 VL with N31R, H38Q, K39E, E42K, N48V, A64G, N93S, I96L
B6: 3420_I23 (antibody, V domains shown)
VH: QVQLQESGPGLVKPSETLSVTCKVSGDSISSYSWSWIRQPPGKGLEWVGYLYYSGSTKYNPSLKSRTTISVDTSTNQLSLKLSFVTAADTAVYFCARTGSESTTGYGMDVWGQGTTVTVSS
VL: B3 VL with N31T, H38Q, E42K, N48I, Q55H, A64G, T72A, N93S, T94P
B7: 3139_P23 (antibody, V domains shown)
VH: QVQLQESGPRLVKPSESLSLTCTVSGGSISNSFWGWIRQPPGEGLEWIGYVYNSGNTKYNPSLKSRVTISRDTSKSQLYMKLRSVTAADTAVYYCARHDDASHGYSISWGHGTLVTVSS
VL: DIQMTQSPSSLSASVGDRVTITCRASQTISTYLNWYQQKSGKAPKLLIYAASGLQSGVPSRFSGSGSGTDFTLTISSLQPEDFATYFCQQSYNTPLTFGQGTKVEIK
B8: 3245_O19 (antibody, V domains shown)
VH: EVQLVESGGGLVQPGGSLRLSCTASGLSVSSTYMNWVRQAPGKGLEWVSVFYSETRTYYADSVKGRFTVSRHNSNNTLYLQMNSLRVEDTAVYYCARVQRLSYGMDVWGQGTTVTVSS
VL: DIQMTQSPSSLSASVGDRVTITCRASQSISTYLNWYQKRPGKAPKLLVYGASTLQSGVPSRFSGSGSGTDFTLTIASLQPEDSATYYCQQTYSIPLFGQGTRLEIK
B9: 3244_H04 (antibody, V domains shown)
VH: B8 VH with V87A
VL: B8 VL with T53S, T85V
B10: 3260_D19 (antibody, V domains shown)
VH: DMQLVESGGGLVPPGGSLRLSCAASGFSVSDNYINWVRQAPGKGLDWVSVFYSADRTSYADSVKGRFTVSSHDSKNTVYLQMNSLRAEDTAVYYCARVQKSYYGMDVWGQGTTVTVSS
VL: GIQMTQSPSSLSASVGDRVTITCRASQSISRYLNWYLQKPGKAPKLLISGASSLQSGVPSRFSGTGSGTEFTLTISSLQPEDFATYYCQQTFSIPLFGQGTKVEIK
B11: 3242_P05 (antibody, V domains shown)
VH: B10 VH
VL: B10 VL
B12: 3259_J21 (antibody, V domains shown)
VH: QVQLQESGPRVVRPSETLSLTCTVSGGSISSYNWIWIRQPPGKGLEWIGHIYDYGRTFYNSSLQSRPTISVDASKNQLSLRLTSVTASDTAVYYCARPLGILHYYAMDLWGQGTTVTVSS
VL: DIQMTQSPLSVSVSVGDRVTIACRASQSIDKFLNWYQQKPGKAPKLLIYGASNLHSGAPSRFSASGSGTDFTLTITNIQTEDFATYLCQQSFSVPAFGGGTKVEIK
B13: 3241_G23 (antibody, V domains shown)
VH: QVQLQQSGPGLVKPSQTLSLTCTVSGGPVSGGGYSWNWIRQRPGQGLEWVGFMFHSGSPRYNPTLKSRITISVDTSKNLVSLKLSSVTAADTAVYFCARVGQMDKYYAMDVWGQGTTVTVSS
VL: DIQMTQSPSSLSSSVGDRVTITCRASQSIGAYVNWYQQKAGKAPQVLIFGASNLQSGVPSRFSGSGSGTDFTLTISSLQPEDFATYFCQQTYSTPITFGQGTRLEIK
B14: 3244_I10 (antibody, V domains shown)
VH: QVQLQESGPGLLKPSDTLALTCTVSGGSITSDYWSWIRQPPGRGLDWIGFFYNGGSTKYNPSLKSRVTISADTSKNQLSLKLTSVTAADTGVYYCARHDAKFSGSYYVASWGQGTRVTVSS
VL: DIQMTQSPSSLSASVGDRVTISCRASQSISTYLNWYQQQPGKAPKVLIFGATNLQSGVPSRFSGSGSGTDFTLTISSLQPEDFATYYCQQSYNTPLIFGQGTKLEIK
B15: 3243_J07 (antibody, V domains shown)
VH: B14 VH with A100V
VL: B14 VL with F49S
B16: 3253_P10 (antibody, V domains shown)
VH: B14 VH
VL: B14 VL with F49S, N53D
B17: 3248_P18 (antibody, V domains shown)
VH: QVQLQESGPGLVKPSETLSLTCTVSGGSISAYHWSWIRQPPGKGLEWIGHIFDSGSTYYNPSLKSRVTISLDASKNQLSLRLTSVTASDTAIYYCARPLGSRYYYGMDVWGQGTTVTVSS
VL: DIQMTQSPSSLSASVGDRVTITCRASQSISRYLNWYQQKPGKAPKLLIYGASTLQNGAPSRFSGSGSGTDFTLTISSLQPEDSATYLCQQSYSVPAFGGGTKVEVK
B18: 3136_G05 (antibody, V domains shown)
VH: QVQLQESGPGLVKPSETLSLTCSVSGGSISSDFWSWIRQPPGKGLEWIGYVYNRGSTKYSPSLKSRVTISADMSKNQFSLNMSSVTAADTAVYYCAKNGRSSTSWGIDVWGKGTTVTVSS
VL: DIQMTQSPSSLSASVGDRLTITCRASQSISTYLHWYQQKPGKAPKLLIYAASSLQSGVPSRFSGSRSGTDFTLTISSLQPDDFATYYCQQSYSPPLTFGPGTKVDMK
Throughout, for FACS M2-HK MFI: test concentration or dose not given here.

In the first assay the target is recombinant soluble homotrimeric HA, A/northern shoveler/California/HKWF115/2007 (H6N1) (influenza A virus A/northern shoveler/California/HKWF115/2007 (H6N1)). As to the kind of experiment: microarray, trimeric HA, transfection supernatant. The following applies: remark: other sources report otherwise.
Take B1: the Trimeric HA Binding RLU was determined as 996 RLU.

The next assay concerns the target recombinant soluble homotrimeric HA, A/duck/Yangzhou/02/2005 (H8N4) (influenza A virus A/duck/Yangzhou/02/2005 (H8N4)). As to the kind of experiment: microarray, trimeric HA, transfection supernatant. The following applies: remark: other sources report otherwise.
B1: the Trimeric HA Binding RLU came out at 9450 RLU.
The same measure, in the same setting: in the case of B2 it was 9440 RLU.

The target in a further assay is recombinant soluble homotrimeric HA, A/chicken/Vietnam/NCVD-016/08 (H5N1) (influenza A virus A/chicken/Vietnam/NCVD-016/2008 (H5N1)). Nature of the assay: microarray, trimeric HA, transfection supernatant. The settings on record: remark: other sources report otherwise.
Take B1: the Trimeric HA Binding RLU is 1600 RLU.
For B2, the Trimeric HA Binding RLU turned out to be 3070 RLU.

Another assay addresses recombinant soluble homotrimeric HA of A/chicken/Vietnam/NCVD-016/08 (H5N1) (Influenza A virus A/chicken/Vietnam/NCVD-016/2008 (H5N1)). Nature of the assay: HA microarray, BCC supernatant. The following applies: remark: other sources report otherwise.
In the case of B1, the Trimeric HA Binding RLU stood at 498 RLU.
The same measure, in the same setting: in the case of B2 it was 272 RLU.

The next assay concerns the target recombinant soluble homotrimeric HA of A/California/4/09 (H1N1) (Influenza A virus A/California/04/2009 (H1N1)). As to the kind of experiment: HA microarray, BCC supernatant. The settings on record: remark: other sources report otherwise.
With B1, the Trimeric HA Binding RLU was 338 RLU.
On the same count and under the same terms, in the case of B2 it was 281 RLU.

The target in the next assay is recombinant soluble homotrimeric HA of A/Solomon Islands/3/06 (H1N1) (Influenza A virus A/Solomon Islands/3/2006 (H1N1)). As to the kind of experiment: HA microarray, BCC supernatant. The settings on record: remark: other sources report otherwise.
B1: the Trimeric HA Binding RLU was 284 RLU.
In the case of B2, the Trimeric HA Binding RLU was determined as 179 RLU.

For the next assay, the target named is recombinant soluble homotrimeric HA of A/Wisconsin/67/05 (H3N2) (Influenza A virus A/Wisconsin/67/2005 (H3N2)). As to the kind of experiment: HA microarray, BCC supernatant. The following applies: remark: other sources report otherwise.
Regarding B1, the Trimeric HA Binding RLU came out at 30900 RLU.

Another assay deals with recombinant soluble homotrimeric HA of A/Japan/305/57 (H2N2) (Influenza A virus A/Japan/305/1957 (H2N2)). As to the kind of experiment: HA microarray, BCC supernatant. The following applies: remark: other sources report otherwise.
On to B1, for which the Trimeric HA Binding RLU is 387 RLU.
Same read-out and setting: in the case of B2 it was 187 RLU.

The target in the next assay is M2 protein of influenza A/Hong Kong/483/97 (H5N1) (influenza A virus A/Hong Kong/483/97 (H5N1)).
Assay: not given
Conditions: not given
B3: the FACS M2-HK MFI was found to be 449 MFI.
Same read-out and setting: in the case of B4 it was 442 MFI; in that of B5, 218 MFI; in that of B6, 112 MFI.
Same read-out and setting: in the case of B7 it was 110 MFI.
B8 had an FACS M2-HK MFI of 919 MFI.
On the same count and under the same terms, in the case of B9 it was 963 MFI.
As to B10, the FACS M2-HK MFI turned out to be 846 MFI.
B11: the FACS M2-HK MFI is 596 MFI.
On the same count and under the same terms, in the case of B12 it was 1670 MFI; in that of B13, 1700 MFI.
On the same count and under the same terms, in the case of B14 it was 434 MFI; in that of B15, 131 MFI; in that of B16, 43 MFI.
On the same count and under the same terms, in the case of B17 it was 967 MFI; in that of B18, 109 MFI.
